According to US20190330347A1 (TAIZHOU HANZHONG BIOPHARMACEUTICS, published 2019):

Experiments:
[1] = target: T1, PD1-hFc of Cynomolgus monkey (Macaca fascicularis) (Cynomolgus monkey (Macaca fascicularis), UniProt B0LAJ3 25-170); test: ELISA on coated cynomolgus PD1-hFc
T1 construct: also called PD1 of Cynomolgus monkey

FcγRIIIa-Biotin = target: T2, FcγRIIIa-Biotin (UniProt P08637 17-208, limits assumed, biotin (site not stated)); test: Fortebio Octet BLI, FcγRIIIa-Biotin on SA sensor
T2 construct: also called CD16a
T2 sequence (P08637 17-208 limits assumed): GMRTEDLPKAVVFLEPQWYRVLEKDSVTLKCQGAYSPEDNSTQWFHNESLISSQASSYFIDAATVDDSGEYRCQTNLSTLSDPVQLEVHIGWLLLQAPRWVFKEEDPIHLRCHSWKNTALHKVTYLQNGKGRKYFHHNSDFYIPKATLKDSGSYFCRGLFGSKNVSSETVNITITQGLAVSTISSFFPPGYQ
From the text: The data was collected with the Fortebio Data Acquisition 7.0 software and analyzed with the Fortebio Data Analysis 7.0 software.

[2] = target: T3, PD1 on the surface of cell membrane (293T cell line stably transfected with PD1) (UniProt Q15116 25-288, limits assumed); test: FACS competition on 293T-PD1 cells, competitor PDL1-mFc 20 nM
T3 construct: whole, on cells
T3 sequence (Q15116 25-288 limits assumed): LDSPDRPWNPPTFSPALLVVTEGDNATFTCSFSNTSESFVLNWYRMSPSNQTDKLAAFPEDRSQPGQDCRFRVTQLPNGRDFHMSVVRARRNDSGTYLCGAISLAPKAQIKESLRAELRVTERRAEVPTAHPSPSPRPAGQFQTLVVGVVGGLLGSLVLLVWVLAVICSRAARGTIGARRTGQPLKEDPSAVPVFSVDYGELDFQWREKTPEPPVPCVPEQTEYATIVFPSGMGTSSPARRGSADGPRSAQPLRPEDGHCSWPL

PD-1-hIgGFc antigen [3] = target: T4, PD-1-hIgGFc antigen (UniProt Q15116 25-167, limits assumed); test: competitive ELISA on coated PD-1-hIgGFc, competitor PDL2-his tag
T4 sequence (Q15116 25-167 limits assumed): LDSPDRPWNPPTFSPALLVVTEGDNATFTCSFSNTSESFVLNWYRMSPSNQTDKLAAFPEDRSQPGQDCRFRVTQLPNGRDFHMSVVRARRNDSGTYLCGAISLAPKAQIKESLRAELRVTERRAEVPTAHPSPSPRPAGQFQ
Method: A 96-well ELISA plate was coated with PD-1-hIgGFc antigen in a concentration of 1.0 μg/ml (100 μl per well) by incubation at 4° C. overnight.
After the 96-well ELISA plate was washed with the PBST buffer for five times and gently patted to dryness, HRP-conjugated monoclonal mouse anti-his tag as a secondary antibody in 1:750 dilution (50 μl per well) was added for incubation at 37° C. for 1 hour.

[4] = target: T3, PD1 on the surface of cell membrane …; test: FACS on 293T cells stably transfected with PD1
Method: Step f) Each group was centrifuged at 4000 r/min at a low temperature for 5 minutes, followed by washing with the PBS buffer once and adding 200 μl PBS for suspending, thus obtaining a suspension for on-line detection.

PD-1-his antigen [5] = target: T5, PD-1-his antigen (UniProt Q15116 25-167, limits assumed); test: ELISA on coated PD-1-his
T5 construct: Human is implied, since cynomolgus and rat PD1 are called non-human antigens
T5 sequence (Q15116 25-167 limits assumed): as above
Method: (§1) An ELISA plate was coated with PD-1-his antigen in a concentration of 0.25 μg/ml (100 μl per well) by incubation at 4° C. overnight.
(§2) The ELISA plate coated with the PD-1-his antigen was blocked with 1% BSA in the PBS buffer at 37° C. for 2 hours and washed with 1 xPBST buffer containing 1% Tween-20 for three times, with gently patting to dryness.
(§3) The absorbance of solution in each well was measured with the microplate reader at a wavelength of 450 nm.

PD-1-his antigen [6] = target: T5, PD-1-his antigen; test: ELISA on coated PD-1-his; antibody at 1:3 dilution of 2 µg/ml
Method: as §1, §2, §3

serum complement C1q = serum complement C1q (UniProt P02745 23-245; P02746 28-253; P02747 29-245); test: Fortebio Octet BLI, H8L2 on FAB2G sensor, C1q in solution
Sequence of serum complement C1q (P02745 23-245 limits assumed, chain 1 of 3): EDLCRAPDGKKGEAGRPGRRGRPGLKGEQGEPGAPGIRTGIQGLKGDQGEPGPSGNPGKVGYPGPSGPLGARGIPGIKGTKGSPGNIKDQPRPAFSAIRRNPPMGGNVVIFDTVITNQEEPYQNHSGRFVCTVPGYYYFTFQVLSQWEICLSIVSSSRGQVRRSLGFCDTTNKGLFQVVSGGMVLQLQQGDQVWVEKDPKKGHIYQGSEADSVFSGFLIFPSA
Sequence of serum complement C1q (P02746 28-253 limits assumed, chain 2 of 3): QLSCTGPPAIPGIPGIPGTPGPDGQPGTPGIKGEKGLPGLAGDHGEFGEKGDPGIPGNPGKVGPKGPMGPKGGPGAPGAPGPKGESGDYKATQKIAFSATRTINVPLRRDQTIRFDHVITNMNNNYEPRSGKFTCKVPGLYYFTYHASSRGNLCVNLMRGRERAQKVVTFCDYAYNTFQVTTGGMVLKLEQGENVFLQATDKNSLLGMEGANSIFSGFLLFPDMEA
Sequence of serum complement C1q (P02747 29-245 limits assumed, chain 3 of 3): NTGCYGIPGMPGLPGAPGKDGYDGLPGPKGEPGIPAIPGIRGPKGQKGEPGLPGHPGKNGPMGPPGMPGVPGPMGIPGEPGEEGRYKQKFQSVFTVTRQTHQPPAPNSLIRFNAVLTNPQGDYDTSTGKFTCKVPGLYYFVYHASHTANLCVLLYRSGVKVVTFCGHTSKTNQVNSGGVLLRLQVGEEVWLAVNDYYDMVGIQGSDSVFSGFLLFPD
From the text: Serum complement C1q can bind to the Fc fragment of IgG antibody, thus involving in complement-dependent cytotoxicity (CDC). The safety and efficacy of a therapeutic monoclonal antibody will be affected by the binding ability of the monoclonal antibody to the serum complement C1q.
After binding for 120 seconds, the PBST buffer was applied to the FAB2G sensor for disassociation, which was kept for 180 seconds. The data was collected with the Fortebio Data Acquisition 7.0 software and analyzed with the Fortebio Data Analysis 7.0 software.

PD-1-hIgGFc antigen [7] = target: T4, PD-1-hIgGFc antigen; test: competitive ELISA on coated PD-1-hIgGFc, competitor PDL1-mIgG2aFc
Method: A 96-well ELISA plate was coated with PD-1-hIgGFc antigen in a concentration of 0.5 μg/ml (50 μl per well) by incubation at 4° C. overnight.

T1 sequence (B0LAJ3 entry or part of it limits assumed, form in doubt): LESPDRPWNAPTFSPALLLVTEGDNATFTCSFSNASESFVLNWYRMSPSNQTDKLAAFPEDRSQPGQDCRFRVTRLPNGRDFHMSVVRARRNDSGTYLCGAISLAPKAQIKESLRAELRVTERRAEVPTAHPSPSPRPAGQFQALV

EC50 [1]: 0.219 nM
binding result (FcγRIIIa-Biotin): no binding (tested: 4000 nM)
EC50 [2]: 19.6 nM
EC50 (PD-1-hIgGFc antigen [3]): 1.83 nM
EC50 [4]: 3.4 nM
EC50 (PD-1-his antigen [5]): 0.04 nM
absorbance at 450 nm (PD-1-his antigen [6]): 1.76
binding result (serum complement C1q): no binding (tested: 3.13 to 200 nM)
EC50 (PD-1-hIgGFc antigen [7]): 0.474 nM
B1: humanized H8L2 antibody (IgG-like antibody H8L2 against PD-1) (antibody)
heavy: EVQLVQSGGGLVQPGGSLKLSCAASGFTFSSYGMSWVRQAPGKGLDWVATISGGGRDTYYPDSVKGRFTISRDNSKNNLYLQMNSLRAEDTALYYCARQKGEAWFAYWGQGTLVTVSSASTKGPSVFPLAPCSRSTSESTAALGCLVKDYFPEPVTVSWNSGALTSGVHTFPAVLQSSGLYSLSSVVTVPSSSLGTKTYTCNVDHKPSNTKVDKRVESKYGPPCPPCPAPEFLGGPSVFLFPPKPKDTLMITRTPEVTCVVVDVSQEDPEVQFNWYVDGVEVHNAKTKPREEQFNSTYRVVSVLTPLHQDWLNGKEYKCKVSNKGLPSSIEKTISKAKGQPREPQVYTLPPSQEEMTKNQVSLTCLVKGFYPSDIAVEWESNGQPENNYKTTPPVLDSDGSFFLYSRLTVDKSRWQEGNVFSCSVMHEALHAHYTQKSLSLSLGK
light: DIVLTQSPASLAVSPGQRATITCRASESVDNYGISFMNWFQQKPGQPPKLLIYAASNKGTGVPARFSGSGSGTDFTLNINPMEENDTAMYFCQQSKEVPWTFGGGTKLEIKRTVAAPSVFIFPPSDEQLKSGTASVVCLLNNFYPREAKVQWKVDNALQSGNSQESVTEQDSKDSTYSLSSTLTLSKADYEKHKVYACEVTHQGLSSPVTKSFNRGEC
notes: Expressed in 293 cells and purified on protein A; also called 18A10 H8L2
